US20100196398A1 (AstraZeneca / MedImmune, published 2010)

B1: fully human monoclonal antibody 4.37 (antibody, V domains shown)
VH: QVQLVESGGGVVQPGRSLRLSCAASGFTFSDYGMHWVRQAPGKGLEWVAVIWYDGSNKYYADSVKGRFTISRDNSKNTLYLQMNSLRAEDTAVYYCARAAGFYYYYGMDVWGQGTTVTVSS
VL: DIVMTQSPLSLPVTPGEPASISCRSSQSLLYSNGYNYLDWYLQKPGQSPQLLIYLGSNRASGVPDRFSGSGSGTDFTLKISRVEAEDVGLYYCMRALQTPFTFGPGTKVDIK
notes: XenoMouse hybridoma antibody of Campaign 1 (IgG1 and IgG4 strains immunised with soluble CD105); also called mAb 4.37; 4.37κ
B2: fully human monoclonal antibody 11H2 (antibody, V domains shown)
VH: QVQLVESGGGVVQPGRSLRLSCAASGFSFSSYGMHWVRQAPGKGLDWVAIIWYDGSYKYYADSVKGRFTISRDNSKNTLSLQMNSLRAEDTAVYYCARDGKYPFDYWGQGTLVTVSS
VL: SYVLTQPPSVSVAPGQTARITCGGNNIGSKSVHWYQQKPGQAPVLVVYDDSDRPSGIPERFSGSNSGNTATLTISRVEAGDEADYYCQVWDRSSDHVVFGGGTKLTVL
notes: XenoMouse hybridoma antibody of Campaign 2 (IgG2 and IgG4 strains); also called 11H2.1
B3: fully human monoclonal antibody 9H10 (antibody, V domains shown)
VH: QVQLVESGGGVVQPGRSLRLSCAASGFAFINYGMHWVRQAPGKGLDWVAVISYDGSNKYYTDSVKGRFTISRDNSKNTLYLQMNSLRAEDTAVYYCARDLMGATLFDNWGQGTLVTVSS
VL: SYVLTQPPSVSVAPGQTARISCGGNNIGSKSVHWFQQKPGQAPVLVVYDDSDRPSGIPERFSGSNSGNTATLTISRVEAGDEADYYCQVWDSSSDHVVFGGGTKLTVL
notes: XenoMouse hybridoma antibody of Campaign 2 (IgG2 and IgG4 strains immunised with B300.19/human CD105 cells); also called 9H10.2
B4: fully human monoclonal antibody 4.120 (antibody, V domains shown)
VH: QVQLQESGPGLVKPSETLSLTCTVSGGSISSYYWSWIRQPAGKGLEWIGRIYTSGSTNYNPSLKSRVTMSVDTSKNQFSLKLSSVTAADTAVYYCARRDIGATIKGFDYWGQGTLVTVSS
VL: not shown
notes: XenoMouse hybridoma antibody of Campaign 1 (IgG1 and IgG4 strains immunised with soluble CD105); also called mAb 4.120
B5: fully human monoclonal antibody 6B10 (antibody, V domains shown)
VH: QEQLVESGGGVVQPGRSLRLSCTASGFTFSNYGIHWVRQAPGKGLEWVTVISYDGSKKYYADSVKGRFTISRDNSKNTLYLQMNSLRAEDTAVYYCARAFSTMVRGVDHWGQGTLVTVSS
VL: DIQMTQSPSSLSASVGDRVTITCQASQDIYKSLNWYQQRPGKAPNLLIYDASNLETGVPSRFSGSGSGTDFTFTISSLQPEDFARYFCQQYDNLPLTFGGGTRVEIK
notes: XenoMouse hybridoma antibody of Campaign 2 (IgG2 and IgG4 strains); also called 6B10.1; mAb 6B10
B6: fully human monoclonal antibody 10C9 (antibody, V domains shown)
VH: QVQLVESGGGVVQPGRSLRLSCAASGFTFRSYGMHWVRQAPGKGLEWVAVIWYDGSNKYYADSVKGRFTISRDNSKNTLDLQMNSLRAEDTAVYYCARDRIAAARYYNGMDVWGQGTTVTVSS
VL: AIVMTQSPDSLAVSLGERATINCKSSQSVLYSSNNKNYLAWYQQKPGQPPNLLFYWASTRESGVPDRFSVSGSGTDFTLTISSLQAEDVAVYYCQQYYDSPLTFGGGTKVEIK
notes: XenoMouse hybridoma antibody of Campaign 2 (IgG2 and IgG4 strains); also called 10C9.2
B7: fully human monoclonal antibody 6B1 (antibody, V domains shown)
VH: QVQLVESGGGVVQPGRSLRLSCAASGFTFSSYGMHWVRQAPGKGLEWVAVIWYDGSNKYYADSVKGRFTISRDNSKNTLYLQMNSLRAEDTAVYYCVRDYSSGWYWGQGTLVTVSS
VL: SYELTQPPSVSVSPGQTARITCSGDALPKKYAYWYQQKSGQAPVLVIYEDSKRPSGIPERFSGSSSGTMATLTISGAQVEDEADYSCYSIDSSVNHVVFGGGTKLTVL
notes: XenoMouse hybridoma antibody of Campaign 2 (IgG2 and IgG4 strains); also called 6B1.1
B8: fully human monoclonal antibody 6A6 (antibody, V domains shown)
VH: EVQLLESGGGLVQPGGSLRLSCAASGFTFSSYAMSWVRQAPGKGLEWVSTISGGGHSTYYADSVKGRFTISRDNSKNTLYLQMNSLRAEDTAVYYCARIAPAGPHFDYWGQGTLVTVSS
VL: NFMLTQPHSVSESPGKTVTFSCTRSSGSIASNFVQWYQQRPGSSPTTVIYEHNQRPSGVPDRFSGSIDSSSSSASLTISGLKTEDEADYYCQFYDRNSHWVFGGGTKLTVL
notes: XenoMouse hybridoma antibody of Campaign 2 (IgG2 and IgG4 strains); also called 6A6.2
B9: fully human monoclonal antibody 4D4 (antibody, V domains shown)
VH: QVQLVESGGGVVQPGRSLRLSCAASGFTFSSYGMHWVRQAPGKGLEWVAVIWYDGSNKYYADSVKGRFTISRDNSKNTLYLQMNSLRAEDTAVYYCARVLGATGGYYYYYGMDVWGQGTTVTVSS
VL: not shown
notes: XenoMouse hybridoma antibody of Campaign 2 (IgG2 and IgG4 strains); also called 4D4.1

Experiments:
human CD105 [1] = biological target: T1, human CD105 (human, UniProt P17813 26-658); assay: FACS competition on HUVEC cells: unlabeled mAb at 50 ug/ml, wash, then FITC-labeled SN6 at 2 ug/ml; blocked antibody: SN6
T1 construct: whole, on cells; Target as carried by HUVEC cells in the FACS assays; also called endoglin; END
T1 sequence (looked up): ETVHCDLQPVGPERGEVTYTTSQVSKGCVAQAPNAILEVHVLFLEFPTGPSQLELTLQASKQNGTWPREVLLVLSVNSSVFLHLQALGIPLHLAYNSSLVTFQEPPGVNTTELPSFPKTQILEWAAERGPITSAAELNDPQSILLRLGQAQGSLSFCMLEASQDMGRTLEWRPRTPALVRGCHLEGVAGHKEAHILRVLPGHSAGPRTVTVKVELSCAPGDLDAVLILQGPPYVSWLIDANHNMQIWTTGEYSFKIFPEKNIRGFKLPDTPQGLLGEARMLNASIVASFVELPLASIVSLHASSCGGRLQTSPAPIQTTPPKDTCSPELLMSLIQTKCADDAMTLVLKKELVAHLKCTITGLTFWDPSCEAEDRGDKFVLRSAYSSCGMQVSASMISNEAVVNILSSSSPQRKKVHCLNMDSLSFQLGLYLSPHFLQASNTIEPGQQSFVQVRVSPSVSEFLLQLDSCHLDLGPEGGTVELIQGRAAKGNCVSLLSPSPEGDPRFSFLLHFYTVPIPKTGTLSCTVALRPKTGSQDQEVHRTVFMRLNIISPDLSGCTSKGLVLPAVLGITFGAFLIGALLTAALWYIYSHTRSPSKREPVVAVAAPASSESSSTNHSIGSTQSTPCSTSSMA

human CD105 [2] = biological target: T1, human CD105; assay: FACS KD determination on HUVEC cells, 4° C., nonlinear fit of geometric mean fluorescence
Description: The affinity of the anti-CD105 antibodies was determined by FACS. […] Cells were kept on ice. Purified antibodies were serially diluted in filtered 1×PBS (2×) across 11 wells in 96-well plates. The twelfth well in each row contained buffer only. Cells and 1×PBS were added to each mAb well such that the final volume was 30 μL/well and each well contained approximately 100,000 cells. Plates were placed on a plate shaker for 3 hours at 4° C., then spun and washed 3 times with PBS. A fluorochrome-labeled secondary goat α-human polyclonal antibody was added to each well in a 200 μL volume. Plates were then incubated for 40 minutes at 4° C., then spun and washed 3 times with PBS.
The Geometric Mean Fluorescence (GMF) of 10,000 cells for each mAb concentration was determined using a FACSCalibur instrument. A nonlinear plot of GMF as a function of molecular mAb concentration was fit using Scientist software using the equation:
In the above equation, F=Geometric mean fluorescence, LT=total molecular mAb concentration, P′=proportionality constant that relates arbitrary fluorescence units to bound mAb, and KD=equilibrium dissociation constant. For each mAb an estimate for KD was obtained as P′ and KD were allowed to float freely in the nonlinear analysis.

Binder	Max % Bloc(king) of SN6 binding (human CD105 [1]) [%]	Kd (human CD105 [2]) [nM]
B1	57	< 0.717
B2	29.4	0.338
B3	81.9	< 0.584
B4	29.4	0.77
B5	96.9	< 0.149
B6	9	< 0.748
B7	20.5	2.3
B8	95.4	< 1.15
B9	5.1	0.622
